Assay: yeast display, Sf9 membrane polyspecificity reagent, FACS + sequencing; frameworks hold sequencing errors
Summary of the method: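 A nanobody's polyreactivity label depends on the gate it was sorted from. Yeast display cells were stained with 10% biotinylated, detergent-solubilized Sf9 membrane reagent for 1 hour at 4 °C, enriched on streptavidin microbeads and sorted by FACS. The low and high (top ~1%) gates were set on anti-HA fluorescence for expression and streptavidin fluorescence for reagent binding.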

| Sequence | polyreactivity (PSR sort gate) |
| --- | --- |
| QVQLVESGGGLVQAGGSLRLSCAASGSIFDSNAMGWYRQAPGKERELVASIDRGGDTNYADSVKGRFTISRDNAKNTVYLQMNSLKPEDTAVYYCAAYYYKWVWIGMDYWGQGTQVTVSS | low polyreactivity |
| QVQLVESGGGLVQAGGSLRLSCAASGSIFDSYAMGWSRQAPGKERELVAAISWSGGSTYYADSVKGRFTISRDNAKNTVSLQMNSLKPEDTAVYYCNTDWADYYYYTDYDYWGQGTQVTVSS | high polyreactivity |
| QVQLVESGGGLVQAGGSLRLSCAASGSIFDSYAMGWYRQAPGKERELVADITSDGSTHYADSVKGRFTISRDNAKNSVYLQMNSLKPEDTAVYYCAAALPLVDFYDYWGQGTQVTVSS | low polyreactivity |
| QVQLVESGGGLVQAGGSLRLSCAASGSIFDTNAMGWYRQAPGKERELVAAINDSGGSTDYADSVKGRFTISRDNAKNTVYLQMNSLKPEDTAVYYCAADIYYTGYNGPEYYWVGMDYWGQGTQVTVSS | low polyreactivity |
| QVQLVESGGGLVQAGGSLRLSCAASGSIFDTYAMGWYRQAPGKERELVAAIRQSGARTYYADSVKGRFTISRDKAKNTVYLQMNSLKPEDTAVYYCAVSYHHYQTWYNYWGQGTQVTVSS | high polyreactivity |
| QVQLVESGGGLVQAGGSLRLSCAASGSIFDTYAMGWYRQAPGKERELVAAITQSGDRTYYADSVKGRFTISRDNAKNTVYLQMNSLKPEDTAVYYCNTRRGSAWSSDYWGQGTQVTVSS | low polyreactivity |
| QVQLVESGGGLVQAGGSLRLSCAASGSIFDTYAMGWYRQAPGKERELVATITRSGARTYYADSVKGRFTISRDNAKITVYLQMNSLKTEDTAVYYCAALYYDDFGYEYDYWGQGTQVTVSS | low polyreactivity |
| QVQLVESGGGLVQAGGSLRLSCAASGSIFDTYAMGWYRQAPGKERELVATITRSGARTYYADSVKGRFTISRDNAKNTVYLQMNSLKPEDTAVYYCAALYYDDFGYEYDYWGQGTQVTVSS | low polyreactivity |
| QVQLVESGGGLVQAGGSLRLSCAASGSIFDTYVMGWYRQAPGKERELVAAISSVSSTYADSVKGRFTISRDNAKNTVYLQLNSLKPVDTAVYYCAADSRSPGHDYWGQGTQVTVSS | low polyreactivity |
| QVQLVESGGGLVQAGGSLRLSCAASGSIFDVNAMGRYRQAPGKERELVAAISDSGGSTYYADSVKGRFTISRDNAKNTVYLQMNSLKPEDTAVYYCNADWSWYNYYDFDYWGQGTQVTVSS | low polyreactivity |
| QVQLVESGGGLVQAGGSLRLSCAASGSIFDVNAMGWYRQAPGKERELVAAITSSGGSTYYADSVKGRFTISRDNAKNTVYLQMNSLKPEDTAVYYCAAYSLYTMYWGQGTQVTVSS | low polyreactivity |
| QVQLVESGGGLVQAGGSLRLSCAASGSIFDVNGMGWYRQAPGKERELVATISSDGSTNYADSVKGRFTISRDNAKNTVYLQMNSLKPEDTAVYYCAADRHQVSVISTEVYWGQGTQVTVSS | low polyreactivity |
| QVQLVESGGGLVQAGGSLRLSCAASGSIFDVYAMGWYRPAPGKEREFVATITTSGGNTYYADSVKGRFTISRDHAKNTVHLQMNSLKPEDTAVYYCAKDRVKSPYLVYDSWGQGTQGTVSS | low polyreactivity |
| QVQLVESGGGLVQAGGSLRLSCAASGSIFDWNAMGWYRKAPGKERELVASITGSGGGTNYADSVKGRFTISRDNAKNTVYLQMNSLKPEDTAVYYCAAEVDYSYWPEYARKYYYWGQGTQVTVSS | low polyreactivity |
| QVQLVESGGGLVQAGGSLRLSCAASGSIFDWYAMGWYRQAPGKEGELVAAISSGDSTYYADSVKGRFTISRDNAKITVYLQMNSLKPEDTAVYDCAAEFHDDHPSFDYWGQGTQVTVSS | low polyreactivity |
| QVQLVESGGGLVQAGGSLRLSCAASGSIFDWYAMGWYRQAPGKEGELVAAISSGDSTYYADSVKGRFTISRDNAMNTVYLQMNSLKPEDTAVYYCAAVTKLSGIRYNYWGQGTQVTVSS | low polyreactivity |

| Sequence | polyreactivity (PSR sort gate) |
| --- | --- |
| QVQLVESGGGLVQAGGSLRLSCAASGSIFDWYAMGWYRQAPGKERELVAAIDSSGSSTYYADSVKGRFTISRDNAKNTVYLQMNSLKPEDNAVYYCAADSDWIRDWFGSLYGSDYWGQGSQVTVSS | low polyreactivity |
| QVQLVESGGGLVQAGGSLRLSCAASGSIFDWYDMGWYRQAPGKEGELVAAISSGDSTYYADSVKGRFTISRDNAKNTVYLQMNSLKPEDTAVYYCAAVTKLSGIRYNYWGQGTQVTVSS | low polyreactivity |
| QVQLVESGGGLVQAGGSLRLSCAASGSIFDYNAMGWYTQAPGKERELVAAITSGGSTNYADSVKGRFTISRDNAKNTVYLQMNTLKPEDTAVYYCAADHDYYPTNLDYWGQGTQVTVSS | low polyreactivity |
| QVQLVESGGGLVQAGGSLRLSCAASGSIFDYNSMGMYIQAPGKERELVAAISSGGTTYYADSVKGRFTISLDNAKNTVYLHIKSLKPEDTDVYYCAARRAGWWGFYYWGQCTQVTVSS | high polyreactivity |
| QVQLVESGGGLVQAGGSLRLSCAASGSIFDYNVMGWYRKAPGKERELVAAITYNDGSTYYADSVKGRFTISRDNAKNTVYLQMNSLKPEDTAVYYCAADYPGGGIYWYFYVYDYDYWGQGTQVTVSS | low polyreactivity |
| QVQLVESGGGLVQAGGSLRLSCAASGSIFDYYAMGWYRPAPGKERELVAAISDSGGSTYYADSVKGRFTISRDNAKNTVYLQMNSLKPEDTAVYYCNAVPRYQATWQESYDYDYWGQGTQVTVSS | high polyreactivity |
| QVQLVESGGGLVQAGGSLRLSCAASGSIFDYYAMGWYRQAPGKERELVASISWIGDRTYYADSVKGRFTISRDNAKNTVYLQMNSLKPEDTAVYYCATDYYEDWRGYEVYWYRPYDYWGQGTQVSVSS | high polyreactivity |
| QVQLVESGGGLVQAGGSLRLSCAASGSIFDYYAMGWYRQAPGKERELVSTYYADSVKGRFTISRDNAKNTVYLQMNSLKPEDTAVYYCAKDRGTTGIRDGPAASLYGYEYWGQGTQVTVSS | low polyreactivity |
| QVQLVESGGGLVQAGGSLRLSCAASGSIFEFNAMGWYRQAHGKERELVSAITWSGTSTYYADSVKGRFTISRDNAKNTVYLQMKSLKPEDTAVYYCGADSTDYFYWGQGTQVTVSS | high polyreactivity |
| QVQLVESGGGLVQAGGSLRLSCAASGSIFEGNGMGWYIQAPGKERELVAAITFRSGSTYYADSVKGRFTISLDNAKNTVYLQMNSLKPEDTAVYYCAADEYYQVSAYDYWGQGTQVTVSS | low polyreactivity |
| QVQLVESGGGLVQAGGSLRLSCAASGSIFEKYAMGWYRQAPGKERELVASISKRGGSTNYADSVKGRFTISRDNAKNTVYLQMNSLKPVDTAVYYCAAPANRWSTRWYYDGYDYWGQGTQVTVSS | high polyreactivity |
| QVQLVESGGGLVQAGGSLRLSCAASGSIFENYAMGWYRQAPGKERELVAAITSSGASTYYADSVKGHFTISRDNEKNTVYIQMNILKPEDTAVYYCAADSAFYDEYQEDYWGQGTQVTVSS | low polyreactivity |
| QVQLVESGGGLVQAGGSLRLSCAASGSIFEPNAMGWYRQAPGKVRELVAAITSGGTTYADSVKGRFTISRDNAKNTVYLQMNSLKPEETAVYYCAADYSFVYYYPFDYWGQGTQVTVSS | low polyreactivity |
| QVQLVESGGGLVQAGGSLRLSCAASGSIFEPNAMVWYRQAPGKERELVAVISIDGITYYADSVKGRFTISRDNAKNSVYLQMNSLKPEDTAVYYCAAYLGQGESYGAYDYWGQGTQVTVSS | low polyreactivity |
| QVQLVESGGGLVQAGGSLRLSCAASGSIFEQNVMGWYRQAPGKERELVAAITRGGSTNYADSVKGRFTISRDNAKNTVYLQMNSLKPEDTAVYYCAKRRWLGPSTLDYWGQGTQVTVSS | low polyreactivity |
| QVQLVESGGGLVQAGGSLRLSCAASGSIFERYAMGWYRPAPGKERELVAGISSDGSTYADSVKGRFTISRDNAKNTVFLQMNSLKPEDTAVYYCAAAAWDPKGSRYDYWGQGTQVTVSS | low polyreactivity |

From the nanobody polyreactivity screen of Harvey et al. (2022)
